Test results published in patent publication US20260098072A1, “METHODS OF STIMULATING APPETITE AND/OR INCREASING BODY WEIGHT USING NON-NATURALLY OCCURRING MELANOCORTIN RECEPTOR ANTAGONIST ANALOGS” (Endevica Bio, Inc., priority 2022, published 2026).
Entries after “also recorded” stand apart in the source; their conditions may differ. Positions of bridges follow the written chain, without caps; N, C: chain ends. Non-standard residues stand in square brackets, D forms with d. No end group written: not given here. d2Nal = N[C@H](Cc1ccc2ccccc2c1)C(=O)O; Hyp = O=C(O)[C@@H]1C[C@@H](O)CN1; Nle = CCCC[C@H](N)C(=O)O

How the values were obtained:
LPS model of cachexia = test: LPS-induced cachexia assay in rats; type: in vivo, rat; conditions: for peripheral (IP) anti-cachexia activity / blood-brain barrier transport: peripheral administration
Experimental: The LPS model uses rats were maintained on a 12 h light/dark schedule with ad libitum access to food and water. Animals were handled daily for a minimum of three consecutive days to decrease non-specific handling stress. On the day of the experiment, individually housed animals received intraperitoneal injections of LPS dissolved in 0.5% low-endotoxin BSA, 0.9% saline or 0.5% BSA in 0.9% saline alone, and were returned to their home cage. The drug or control was administered (ICV, IP, or PO, depending on the type of study) 1-hour after LPS injection.
In the experiments performed in accordance with the present technology, a series of melanocortin receptor antagonist peptides were examined in a bacterial endotoxin inducing cachexia assay. For this assay, a rat is challenged with a single peripheral injection of lipopolysaccharide (LPS). LPS is a heat-stable lipo-polysaccharide, the major component of the outer membrane (capsule) of gram negative bacteria. In non-capsulated strains, it appears as a cell surface protein. LPS produces a strong immune response, including secretion of the proinflammatory cytokines Tumor Necrosis Factor α (TNFα) and interleukin-1 (IL-1). Proinflammatory cytokines are known factors that induce cachexia.
Rats are maintained on a 12-hour light/dark cycle. Animals are handled daily for a minimum of 5 consecutive days to acclimate them to the handling required for the experiment. […] On the day of the experiment, individually housed animals receive intraperitoneal (IP) injections of LPS dissolved in 0.5% low-endotoxin BSA, 0.9% saline or 0.5% BSA in 0.9% saline alone, and returned in their home cage. Melanocortin receptor antagonist peptides were administered (IP or by gavage, depending on the type of study) one hour after the LPS injection. The extent of cachexia is measured by the reduction in food intake, measured every two hours. The cachexia typically lasts only a single day. However, rats lose up to 5% of their body weight during a 12-hour light cycle, making up this loss plus food needed for normal growth during the 12-hour dark cycle. Thus, failure to eat appropriately during a single dark cycle is determinable from the animal's weight and any changes thereof.
A series of melanocortin receptor antagonist peptides were examined in a bacterial toxin inducing cachexia assay. In this assay, a rat was challenged with a single peripheral injection of lipopolysaccharide (LPS), a bacterial toxin that rapidly induces acute cachexia. The extent of cachexia was measured as a reduction in food intake, measured every two hours. The cachexia typically lasts only a single day.

[1] = molecular target: human melanocortin 4 receptor (MC4R) (human, UniProt P32245 1-332); test: cell-based or functional assay
human melanocortin 4 receptor (MC4R), sequence (P32245 whole entry): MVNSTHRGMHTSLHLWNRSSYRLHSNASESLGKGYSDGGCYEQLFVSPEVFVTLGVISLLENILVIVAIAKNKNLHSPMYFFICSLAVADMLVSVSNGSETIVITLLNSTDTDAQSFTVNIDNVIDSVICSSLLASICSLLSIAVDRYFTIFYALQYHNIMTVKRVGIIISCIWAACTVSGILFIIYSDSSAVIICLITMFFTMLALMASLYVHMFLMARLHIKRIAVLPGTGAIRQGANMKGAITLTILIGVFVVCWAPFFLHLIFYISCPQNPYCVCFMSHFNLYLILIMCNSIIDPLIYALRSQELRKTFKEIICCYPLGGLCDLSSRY

[2] = molecular target: human melanocortin 3 receptor (MC3R) (human, UniProt P41968 1-323); test: cell-based or functional assay
human melanocortin 3 receptor (MC3R), sequence (P41968 whole entry): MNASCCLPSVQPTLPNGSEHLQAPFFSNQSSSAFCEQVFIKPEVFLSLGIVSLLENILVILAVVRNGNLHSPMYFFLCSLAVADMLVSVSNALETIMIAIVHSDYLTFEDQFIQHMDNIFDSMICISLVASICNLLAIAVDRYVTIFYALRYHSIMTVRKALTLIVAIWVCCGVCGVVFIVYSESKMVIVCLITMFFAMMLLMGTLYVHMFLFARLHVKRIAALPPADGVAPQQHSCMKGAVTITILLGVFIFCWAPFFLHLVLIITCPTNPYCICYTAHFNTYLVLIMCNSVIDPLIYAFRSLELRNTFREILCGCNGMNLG

Row | Molecule | peripheral (IP) anti-cachexia activity / blood-brain barrier transport (LPS model of cachexia) | Max Activation % [1] [%] | IC50 (cAMP by HTRF, antagonist dose-response) [2] [nM] | Max Activation % [2] [%] | also measured
1 | Ac-Nle-c[Asp-His-DNal(2′)-Arg-Trp-Lys]-DPro-DVal-NH2 (Ac-[Nle]DH[d2Nal]RWK[dP][dV]-NH2; lactam 2-7; SMILES CCCC[C@H](NC(C)=O)C(=O)N[C@H]1CC(=O)NCCCC[C@@H](C(=O)N2CCC[C@@H]2C(=O)N[C@@H](C(N)=O)C(C)C)NC(=O)[C@H](Cc2c[nH]c3ccccc23)NC(=O)[C@H](CCCNC(=N)N)NC(=O)[C@@H](Cc2ccc3ccccc3c2)NC(=O)[C@H](Cc2c[nH]cn2)NC1=O) [TCMCB03] | failed to cross the blood brain barrier; also recorded: did not possess as good peripheral (intraperitoneal/IP administration) anti-cachexia activity |  |  |  | anti-cachectic activity after ICV administration (LPS model of cachexia): enhanced anti-cachexia; also recorded: superior anti-cachexia activity following ICV administration
2 | Ac-Nle-c[Asp-Pro-DNal(2′)-Arg-Trp-Lys]-DVal-DPro (Ac-[Nle]DP[d2Nal]RWK[dV][dP]; lactam 2-7) [TCMCB07A] | equivalent stimulation of feeding |  |  |  | 
3 | Ac-Nle-c[Asp-Pro-DNal(2′)-Arg-Trp-Lys]-β^2Val-β^3Pro-NH2 [TCMCB08] | has peripheral activity; also recorded: good blood-brain barrier transport |  |  |  | oral activity / gastrointestinal transport (LPS model of cachexia; gavage (intra-gastric)): no gastrointestinal transport; also recorded: not as much oral activity as TCMCB07
4 | Ac-Nle-c[Asp-Pro-DNal(2′)-Arg-Trp-Lys]-β^3Pro-β^3Pro-NH2 [TCMCB10] | showed no peripheral activity |  |  |  | anti-cachectic activity after ICV administration (LPS model of cachexia): maintaining direct inhibitory effects
5 | Ac-Nle-c[Asp-Pro-DNal(2′)-Arg-Trp-Lys]-β^3Pro-β^3Val-NH2 [TCMCB06] |  |  |  |  | food intake and body weight, 24-hours (LPS model of cachexia; 0.2 mg/kg intraperitoneally): ate less food than the other non-naturally occurring melanocortin analogs, and had no weight gain; anti-cachectic activity after ICV administration (LPS model of cachexia): molar activity equivalent to TCMCB02; molar activity relative to TCMCB02 (LPS model of cachexia; ICV-administration): 10 fold
6 | Ac-Nle-c[Asp-Pro-DNal(2′)-Arg-Trp-Lys]-β^3Val-β^3Pro-NH2 [TCMCB09] | inactive peripherally |  |  |  | 
7 | Ac-Nle-c[D-Asp-Pro-DNal(2′)-Arg-Trp-DLys]-DPro-DVal-NH2 (Ac-[Nle][dD]P[d2Nal]RW[dK][dP][dV]-NH2; lactam 2-7) [TCMCB04] | No difference was observed between the non-naturally occurring melanocortin analog and saline; also recorded: eliminated blood brain barrier transport |  |  |  | anti-cachectic activity after ICV administration (LPS model of cachexia): superior anti-cachectic activity compared to the parent compound
8 | Ac-[Nle]D[Hyp][d2Nal]RWK[dV][dP]-NH2 (lactam 2-7; SMILES CCCC[C@H](NC(C)=O)C(=O)N[C@H]1CC(=O)NCCCC[C@@H](C(=O)N[C@@H](C(=O)N2CCC[C@@H]2C(N)=O)C(C)C)NC(=O)[C@H](Cc2c[nH]c3ccccc23)NC(=O)[C@H](CCCNC(=N)N)NC(=O)[C@@H](Cc2ccc3ccccc3c2)NC(=O)[C@@H]2C[C@@H](O)CN2C1=O) [D3] |  | 117 | 87 | 111 | IC50 (cAMP by HTRF, antagonist dose-response) [1]: 40.6 nM
9 | Ac-[Nle]D[Hyp][d2Nal]RWPK[dV][dP]-NH2 (lactam 2-8; SMILES CCCC[C@H](NC(C)=O)C(=O)N[C@H]1CC(=O)NCCCC[C@@H](C(=O)N[C@@H](C(=O)N2CCC[C@@H]2C(N)=O)C(C)C)NC(=O)[C@@H]2CCCN2C(=O)[C@H](Cc2c[nH]c3ccccc23)NC(=O)[C@H](CCCNC(=N)N)NC(=O)[C@@H](Cc2ccc3ccccc3c2)NC(=O)[C@@H]2C[C@@H](O)CN2C1=O) [D4] |  | 21 | > 10000 | 50.1 | 
10 | Ac-[Nle]DP[d2Nal]RWK[dP][dV]-NH2 (lactam 2-7; SMILES CCCC[C@H](NC(C)=O)C(=O)N[C@H]1CC(=O)NCCCC[C@@H](C(=O)N2CCC[C@@H]2C(=O)N[C@@H](C(N)=O)C(C)C)NC(=O)[C@H](Cc2c[nH]c3ccccc23)NC(=O)[C@H](CCCNC(=N)N)NC(=O)[C@@H](Cc2ccc3ccccc3c2)NC(=O)[C@@H]2CCCN2C1=O) [TCMCB02] |  | 120 | 1360 | 101 | IC50 (cAMP by HTRF, antagonist dose-response) [1]: 57.1 nM
11 | Ac-[Nle]DPFFRWK[dV][dP]-NH2 (lactam 2-8; SMILES CCCC[C@H](NC(C)=O)C(=O)N[C@H]1CC(=O)NCCCC[C@@H](C(=O)N[C@@H](C(=O)N2CCC[C@@H]2C(N)=O)C(C)C)NC(=O)[C@H](Cc2c[nH]c3ccccc23)NC(=O)[C@H](CCCNC(=N)N)NC(=O)[C@H](Cc2ccccc2)NC(=O)[C@H](Cc2ccccc2)NC(=O)[C@@H]2CCCN2C1=O) [B1] |  | 12.7 |  | 6.86 | 
12 | Ac-LDPFFRWKVP-NH2 (lactam 2-8; SMILES CC(=O)N[C@@H](CC(C)C)C(=O)N[C@H]1CC(=O)NCCCC[C@@H](C(=O)N[C@H](C(=O)N2CCC[C@H]2C(N)=O)C(C)C)NC(=O)[C@H](Cc2c[nH]c3ccccc23)NC(=O)[C@H](CCCNC(=N)N)NC(=O)[C@H](Cc2ccccc2)NC(=O)[C@H](Cc2ccccc2)NC(=O)[C@@H]2CCCN2C1=O) [B2] |  | 35.5 |  | 10.3 | 
13 | LPFFRWVP [B4] |  | 16.1 |  | 7.81 | 
14 | Ac-[Nle]DP[d2Nal]RWK[dV][dP]-NH2 (lactam 2-7) [TCMCB07] |  | 118 | 43.4 | 112 | IC50 (cAMP by HTRF, antagonist dose-response) [1]: 26.9 nM
15 | LDPFFRWKVP (lactam 2-8) [B3] |  | 4.41 |  | 0.83 | 
16 | Ac-[Nle]DH[d2Nal]RWPK[dV][dP]-NH2 (lactam 2-8; SMILES CCCC[C@H](NC(C)=O)C(=O)N[C@H]1CC(=O)NCCCC[C@@H](C(=O)N[C@@H](C(=O)N2CCC[C@@H]2C(N)=O)C(C)C)NC(=O)[C@@H]2CCCN2C(=O)[C@H](Cc2c[nH]c3ccccc23)NC(=O)[C@H](CCCNC(=N)N)NC(=O)[C@@H](Cc2ccc3ccccc3c2)NC(=O)[C@H](Cc2c[nH]cn2)NC1=O) [D2] |  | 17.6 |  | 31.8 | 
17 | Ac-[Nle]DP[d2Nal]RWK[dV][dP]-NH2 (SMILES CCCC[C@H](NC(C)=O)C(=O)N[C@@H](CC(=O)O)C(=O)N1CCC[C@H]1C(=O)N[C@H](Cc1ccc2ccccc2c1)C(=O)N[C@@H](CCCNC(=N)N)C(=O)N[C@@H](Cc1c[nH]c2ccccc12)C(=O)N[C@@H](CCCCN)C(=O)N[C@@H](C(=O)N1CCC[C@@H]1C(N)=O)C(C)C) [A1] |  | 79.3 | 3660 | 84.4 | IC50 (cAMP by HTRF, antagonist dose-response) [1]: 3610 nM
18 | Ac-[Nle]DPH[d2Nal]RWK[dP][dV]-NH2 (lactam 2-8; SMILES CCCC[C@H](NC(C)=O)C(=O)N[C@H]1CC(=O)NCCCC[C@@H](C(=O)N2CCC[C@@H]2C(=O)N[C@@H](C(N)=O)C(C)C)NC(=O)[C@H](Cc2c[nH]c3ccccc23)NC(=O)[C@H](CCCNC(=N)N)NC(=O)[C@@H](Cc2ccc3ccccc3c2)NC(=O)[C@H](Cc2c[nH]cn2)NC(=O)[C@@H]2CCCN2C1=O) [D5] |  | 41.5 | > 10000 | 24.6 | 
